The text below walks through data of US12024555 (VANDERBILT UNIVERSITY, dated 2024).

For assay [1], the target named is T1, recombinant WNV E protein containing only DIII (West Nile virus, UniProt Q9Q6P4 586-694).
T1 construct: domain: DIII
T1 sequence: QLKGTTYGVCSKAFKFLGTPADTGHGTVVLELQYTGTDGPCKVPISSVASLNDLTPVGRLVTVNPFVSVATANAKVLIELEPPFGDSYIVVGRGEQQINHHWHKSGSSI
The experiment in a line: ELISA on plate-coated recombinant DIII. For orientation: In an ELISA, binding on a coated surface is turned into a signal by an enzyme label.

Assay [2] concerns the target T2, West Nile virus E protein T208K variant on RVPs (West Nile virus (WNV1 NY99 strain), UniProt Q9Q6P4 291-791, T208K).
T2 sequence (looked up): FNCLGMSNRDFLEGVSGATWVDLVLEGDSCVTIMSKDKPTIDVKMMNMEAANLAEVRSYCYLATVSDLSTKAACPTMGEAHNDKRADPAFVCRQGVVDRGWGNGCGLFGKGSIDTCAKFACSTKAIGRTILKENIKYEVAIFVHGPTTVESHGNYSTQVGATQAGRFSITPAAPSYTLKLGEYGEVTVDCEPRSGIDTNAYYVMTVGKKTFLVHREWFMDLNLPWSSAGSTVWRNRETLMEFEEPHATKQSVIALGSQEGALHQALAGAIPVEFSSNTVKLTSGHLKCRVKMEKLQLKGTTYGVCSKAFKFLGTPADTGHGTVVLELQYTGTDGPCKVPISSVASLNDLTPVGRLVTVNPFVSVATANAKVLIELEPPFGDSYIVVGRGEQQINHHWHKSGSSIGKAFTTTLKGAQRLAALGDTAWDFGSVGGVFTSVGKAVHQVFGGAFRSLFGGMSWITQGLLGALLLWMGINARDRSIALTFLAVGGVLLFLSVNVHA
As to the kind of experiment: cell-based or functional assay.

Assay [3] concerns the target T3, West Nile virus E protein T64Q variant on RVPs (West Nile virus (WNV1 NY99 strain), UniProt Q9Q6P4 291-791, T64Q).
T3 sequence (looked up): T2 sequence (looked up) with T64Q, K208T
As to the kind of experiment: cell-based or functional assay.

Where a chain is given by its changes, count along the chain named.

B1: human mAb WNV-57 (antibody, V domains shown)
VH: QVQLVESGGGVVQPGRSLRLACAASGFTLSDFAIHWVRQAPGKGLEWVAIISYDGNIKYYADSVKGRFTISSDNSKNTVYLQMNSLRAEDTAMYYCARDPDVVETAHDAFDIWGQGTLVTVSS
VL: DILMTQSPSSLSASVGDRVTITCRASQNIKNYLNWYQQKPGKAPKLLIYAASSLQSLVPSRFSGSGSGTDFTLTISSLQPEDFATYYCQQSYSSFRTFGQGTKVEVK
In the case of B1, the binding result in assay [1] is “no binding”.

B2: human mAb WNV-62 (antibody, V domains shown)
VH: QVQLVESGGGVVQPGRSLRLSCAASGFTFSSYGMHWVRQAPGKGLEWVAVMSYDGSKIYYADSVKGRFTISRDNSKNTLYLQMDSLRAEDTAVYYCAKVGYYDGSRYDLIAEYFQYWGQGTLVTVSS
VL: QSVLTQPPSVSGAAGQRVTISCTGSSSNIGAGYDVHWYQQLPGTAPKLLIYGNNNRPSGVPDRFSGSKSDTSASLAITGLRPEDELDYYCQSYDNRLSAYVFGTGTKVTVL
For B2, the binding result in assay [1] is recorded as “no binding”.

B3: human mAb WNV-86 (antibody, V domains shown)
VH: QVQLVQSGGGLVQPGRSLRLCCAASGFSFDDFAMHWVRQAPGKGLEWVSGINWNSGHIGYADSVKGRFTISRDNAKNSLCLQMNSLRPEDTALYYCAKDRAYYFGSGTSGGAFDVWGQGTLVTVSS
VL: DIVMTQSPSSLSASVGDRVTITCRASQNIISYLNWYQQKPGKAPKLLIYDASSLQSGVPSRFSGSGSGTDFTLTISSLQPEDFATYYCQRSFSTPLTFGGGTKVEIK
For the molecule B3, the “fold increase in neutralization IC50 relative to WT RVPs” value in assay [2] was 13 fold; in assay [3], 88 fold.

B4: human mAb WNV-10 (antibody, V domains shown)
VH: QVQLVESGGGVVQPGRSLRLSCAASGFTFSSHAMHWVRQAPGKGLEWVAVISYDIINEYYADSVKGRFTISRDNSKNTLYLQMNSLRAEDTAVYYCARDGYFPNSSGEGFFDYWGQGTLVTVSS
VL: EIVMTQSPATLSVSPGERATLSCRASQSLSNNLAWYQQKPGQAPRLLIYGASTRATGIPARFSGSGSGTQFTLTISSLQSEDIAVYYCQQFNNWPWTFGQGTKVEIK
On to B4, for which the binding result in assay [1] is given as “no binding”.
